From patent US11504441B2, “Radiolabeled compounds targeting the prostate-specific membrane antigen” (PROVINCIAL HEALTH SERVICES AUTHORITY, priority 2019, dated 2022)

How the values were obtained:
[1] = test system: PSMA-expressing LNCaP cancer xenografts; conditions: mouse, in vivo
in vivo = conditions: male, NODSCID 1L2RγKO, mouse, iv, total radioactivity; for excreta dose per gram or mL at 1 h: Urine uptake

Compound	Blood: Salivary ratio [1]	Tumor: Blood ratio [1]	Tumor: Kidney ratio [1]	Tumor: Muscle ratio [1]	Tumor: Salivary ratio [1]	tissue uptake at 1 h (in vivo; Adrenal glands uptake) [%ID/g]	tissue uptake at 1 h (in vivo; Blood uptake) [%ID/g]	tissue uptake at 1 h (in vivo; Bone uptake) [%ID/g]	tissue uptake at 1 h (in vivo; Brain uptake) [%ID/g]	tissue uptake at 1 h (in vivo; Fat uptake) [%ID/g]	tissue uptake at 1 h (in vivo; Heart uptake) [%ID/g]	tissue uptake at 1 h (in vivo; Intestine uptake) [%ID/g]	tissue uptake at 1 h (in vivo; Kidneys uptake) [%ID/g]	tissue uptake at 1 h (in vivo; Lacrimal uptake) [%ID/g]	tissue uptake at 1 h (in vivo; Liver uptake) [%ID/g]	tissue uptake at 1 h (in vivo; Lungs uptake) [%ID/g]	tissue uptake at 1 h (in vivo; Muscle uptake) [%ID/g]	tissue uptake at 1 h (in vivo; Pancreas uptake) [%ID/g]	tissue uptake at 1 h (in vivo; Salivary uptake) [%ID/g]	tissue uptake at 1 h (in vivo; Seminal uptake) [%ID/g]	other results
O=C(O)CCCCC(NC(=O)N[C@@H](CCCCNC(=O)[C@H](Cc1c2ccccc2cc2ccccc12)NC(=O)[C@H]1CC[C@H](CNC(=O)CN2CCN(CC(=O)O)CCN(CC(=O)O)CCN(CC(=O)O)CC2)CC1)C(=O)O)C(=O)O (single isomer, unassigned) [68Ga-HTK03189A, metal not drawn]	4.39 ± 0.44	2.41 ± 0.29	0.83 ± 0.21	16.5 ± 4.08	10.5 ± 1.07	0.35 ± 0.06	0.89 ± 0.22	0.12 ± 0.03	0.02	0.18 ± 0.11	0.24 ± 0.06	0.31 ± 0.18	2.65 ± 0.69	0.18 ± 0.18	0.34 ± 0.15	0.68 ± 0.12	0.14 ± 0.04	0.15 ± 0.04	0.2 ± 0.04	3.61 ± 4.59	Tumor uptake ([1]; male, NODSCID 1L2RγKO, iv, 1 h): 2.10 ± 0.28 % ID/g; tissue uptake at 1 h (in vivo; Spleen uptake): 0.21 ± 0.1 %ID/g; tissue uptake at 1 h (in vivo; Stomach uptake): 0.11 ± 0.06 %ID/g; tissue uptake at 1 h (in vivo; Tail uptake): 0.77 ± 0.3 %ID/g; tissue uptake at 1 h (in vivo; Testes uptake): 0.23 ± 0.11 %ID/g; tissue uptake at 1 h (in vivo; Thyroid uptake): 0.25 ± 0.05 %ID/g; excreta dose per gram or mL at 1 h (in vivo): 343 ± 54.4 %ID/g
O=C(O)CCC[C@H](NC(=O)N[C@@H](CCCCNC(=O)[C@H](Cc1cccc(I)c1)NC(=O)[C@H]1CC[C@H](CNC(=O)CN2CCN(CC(=O)O)CCN(CC(=O)O)CCN(CC(=O)O)CC2)CC1)C(=O)O)C(=O)O [68Ga-HTK04053, metal not drawn]	5.19 ± 1.73	16.8 ± 7.00	1.84 ± 1.26	93.7 ± 27.0	84.3 ± 32.1	0.12 ± 0.03	0.29 ± 0.05	0.04 ± 0.01	0.01	0.04 ± 0.01	0.09 ± 0.02	0.15 ± 0.03	3.48 ± 2.39	0.05 ± 0.01	0.13 ± 0.07	0.28 ± 0.04	0.05 ± 0.01	0.06 ± 0.02	0.06 ± 0.02	7.61 ± 12.5	tissue uptake at 1 h (in vivo; Spleen uptake): 0.12 ± 0.03 %ID/g; tissue uptake at 1 h (in vivo; Stomach uptake): 0.06 ± 0.04 %ID/g; tissue uptake at 1 h (in vivo; Tail uptake): 0.2 ± 0.07 %ID/g; tissue uptake at 1 h (in vivo; Testes uptake): 0.11 ± 0.02 %ID/g; tissue uptake at 1 h (in vivo; Thyroid uptake): 0.09 ± 0.01 %ID/g; tissue uptake at 1 h (in vivo; Tumor uptake): 4.96 ± 2.75 %ID/g; excreta dose per gram or mL at 1 h (in vivo): 523 ± 330 %ID/g
O=C(O)CN1CCN(CC(=O)O)CCN(CC(=O)NC[C@H]2CC[C@H](C(=O)N[C@@H](Cc3c4ccccc4cc4ccccc34)C(=O)NCCCC[C@H](NC(=O)N[C@@H](C[C@H](F)C(=O)O)C(=O)O)C(=O)O)CC2)CCN(CC(=O)O)CC1 [68Ga-HTK04040, metal not drawn]	0.73 ± 0.06	20.4 ± 6.02	0.26 ± 0.08	43.2 ± 24.9	14.9 ± 4.40	2.68 ± 0.7	0.94 ± 0.12	0.18 ± 0.03	0.25 ± 0.43	0.6 ± 0.3	0.88 ± 0.08	0.53 ± 0.04	76 ± 22.6	0.06 ± 0.02	0.94 ± 0.11	2.01 ± 0.21	0.64 ± 0.5	0.61 ± 0.08	1.29 ± 0.24	0.51 ± 0.12	tissue uptake at 1 h (in vivo; Spleen uptake): 2.58 ± 0.8 %ID/g; tissue uptake at 1 h (in vivo; Stomach uptake): 0.23 ± 0.08 %ID/g; tissue uptake at 1 h (in vivo; Tail uptake): 0.85 ± 0.54 %ID/g; tissue uptake at 1 h (in vivo; Testes uptake): 0.74 ± 0.04 %ID/g; tissue uptake at 1 h (in vivo; Thyroid uptake): 1.14 ± 0.14 %ID/g; tissue uptake at 1 h (in vivo; Tumor uptake): 18.8 ± 5.06 %ID/g; excreta dose per gram or mL at 1 h (in vivo): 325 ± 66.8 %ID/g
O=C(O)C[C@H](NC(=O)N[C@@H](CCCCNC(=O)[C@H](Cc1c2ccccc2cc2ccccc12)NC(=O)[C@H]1CC[C@H](CNC(=O)CN2CCN(CC(=O)O)CCN(CC(=O)O)CCN(CC(=O)O)CC2)CC1)C(=O)O)C(=O)O [68Ga-HTK03161, metal not drawn]	5.08 ± 0.62	11.4 ± 1.73	3.03 ± 0.84	89.4 ± 36.1	57.2 ± 7.11	0.41 ± 0.07	1.13 ± 0.19	0.11 ± 0.02	0.02	0.15 ± 0.04	0.32 ± 0.05	0.31 ± 0.09	4.41 ± 1.26	0.12 ± 0.06	0.28 ± 0.05	0.75 ± 0.13	0.15 ± 0.04	0.18 ± 0.03	0.23 ± 0.05	6.22 ± 12.2	tissue uptake at 1 h (in vivo; Spleen uptake): 0.27 ± 0.06 %ID/g; tissue uptake at 1 h (in vivo; Stomach uptake): 0.1 ± 0.04 %ID/g; tissue uptake at 1 h (in vivo; Tail uptake): 0.55 ± 0.1 %ID/g; tissue uptake at 1 h (in vivo; Testes uptake): 0.54 ± 0.51 %ID/g; tissue uptake at 1 h (in vivo; Thyroid uptake): 0.29 ± 0.05 %ID/g; tissue uptake at 1 h (in vivo; Tumor uptake): 12.7 ± 1.91 %ID/g; excreta dose per gram or mL at 1 h (in vivo): 363 ± 155 %ID/g
O=C(O)CCC[C@H](NC(=O)N[C@@H](CCCCNC(=O)[C@H](Cc1ccc2ccccc2c1)NC(=O)[C@H]1CC[C@H](CNC(=O)CN2CCN(CC(=O)O)CCN(CC(=O)O)CCN(CC(=O)O)CC2)CC1)C(=O)O)C(=O)O [68Ga-HTK03169, metal not drawn]	4.39 ± 2.06	6.09 ± 2.24	1.47 ± 0.16	47.1 ± 12.3	23.2 ± 1.91	0.24 ± 0.08	0.63 ± 0.36	0.08 ± 0.03	0.02 ± 0.01	0.09 ± 0.04	0.14 ± 0.07	0.23 ± 0.16	2.18 ± 0.48	0.13 ± 0.06	0.21 ± 0.16	0.38 ± 0.17	0.08 ± 0.05	0.11 ± 0.05	0.14 ± 0.03	3.83 ± 2.93	tissue uptake at 1 h (in vivo; Spleen uptake): 0.13 ± 0.06 %ID/g; tissue uptake at 1 h (in vivo; Stomach uptake): 0.09 ± 0.11 %ID/g; tissue uptake at 1 h (in vivo; Tail uptake): 0.48 ± 0.2 %ID/g; tissue uptake at 1 h (in vivo; Testes uptake): 0.13 ± 0.07 %ID/g; tissue uptake at 1 h (in vivo; Thyroid uptake): 0.16 ± 0.07 %ID/g; tissue uptake at 1 h (in vivo; Tumor uptake): 3.19 ± 0.7 %ID/g; excreta dose per gram or mL at 1 h (in vivo): 421 ± 187 %ID/g
